Reference: patent US20220064302A1 (GIGAGEN, published 2022)

Assays:
[1] = target: T1, human PD-1 (soluble PD-1 protein, R&D Systems) (human, UniProt Q15116 25-170, limits assumed); assay: BLI (Octet Red96), mAb on AHC biosensor, PD-1 as analyte
T1 construct: the kinetics paragraphs say only 'PD-1' / 'antigen'; also called hPD-1; soluble PD-1 immunogen
Method: (§1) For BLI, antibodies were loaded onto an Anti-Human IgG Fc (AHC) biosensor using the Octet Red96 system (ForteBio). Loaded biosensors were dipped into antigen dilutions beginning at 300 nM, with 6 serial dilutions at 1:3. Kinetic analysis was performed using a 1:1 binding model and global fitting.

[2] = target: T2, PD-1 expressed on cells (human, UniProt Q15116 25-288); assay: flow cytometry on PD-1 expressing Flp-In CHO cells
T2 construct: also called PD-1 expressed in CHO cells
T2 sequence (Q15116 25-288 limits assumed): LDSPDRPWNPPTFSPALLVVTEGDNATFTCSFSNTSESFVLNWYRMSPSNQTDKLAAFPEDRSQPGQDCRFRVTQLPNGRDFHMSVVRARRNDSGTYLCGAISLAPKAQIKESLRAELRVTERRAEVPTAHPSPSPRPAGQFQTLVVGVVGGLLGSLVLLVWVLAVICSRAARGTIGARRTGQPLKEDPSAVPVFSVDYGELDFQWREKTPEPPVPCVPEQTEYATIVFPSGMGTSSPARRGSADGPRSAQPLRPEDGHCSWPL

[3] = target: T1, human PD-1 (soluble PD-1 protein, R&D …); assay: array SPR (Carterra), mAb captured, PD-1 as analyte
Method: (§2) For SPR, a moderate density (»1,000 Response Units) of an antihuman IgG-Fc reagent (Southern Biotech 2047-01) was amine-coupled to a Xantec CMD-50M chip (50 nm carboxymethyldextran medium density of functional groups) activated with 133 mM EDC (Sigma) and 33.3 mM S-NHS (ThermoFisher) in 100 mM MES pH 5.5. Then, goat anti-Human IgG Fc (Southern Biotech 2047-01) was coupled for 10 minutes at […] in 10 mM Sodim Acetate pH 4.5 (Carterra Inc.). The surface was then deactivated with 1 M ethanolamine pH 8.5 (Carterra Inc.). Running buffer used for the lawn immobilization was HBS-EPC (10 mM HEPES, 150 mM NaCl, 3 mM EDTA, 0.05% Tween 20, pH 7.4; Teknova).
(§3) The sensor chip was then transferred to a continuous flow microspotter (CFM; Carterra Inc.) for array capturing. The mAb supernatants were diluted 50-fold ([…] final concentration) into HBS-EPC with 1 mg/mL BSA. The samples were each captured twice with 15-minute and 4-minute capture steps on the first and second prints, respectively, to create multiple densities, using a […] flow rate. The running buffer in the CFM was also HBS-EPC.
(§4) Next, the sensor chip was loaded onto an SPR reader (MX-96 system; Ibis Technologies) for the kinetic analysis. […] PD-1 injections were 5 minutes with a 15-minute dissociation at […] in a non-regenerative kinetic series. An injection of the goat anti-Human IgG Fc capture antibody at […] was injected at the end of the series to verify the capture level of each mAb. Binding data was double referenced by subtracting an interspot surface and a blank injection and analyzed for ka (on-rate), kd (off-rate), and KD (affinity) using the Kinetic Interaction Tool software (Carterra Inc.).

[4] = target: T2, PD-1 expressed on cells; assay: cell-based or functional assay
[5] = target: T3, Cyno PD-1 (cyno); assay: BLI, mAb on AHC biosensor, cyno PD-1 as analyte
T3 construct: also called cynomolgus PD-1
Method: The binding specificity and affinity of each full-length antibody towards PD-1 were determined using BLI and/or SPR. […] Anti-cyno PD-1 affinity was measured using BLI.
as §1

[6] = target: T1, human PD-1 (soluble PD-1 protein, R&D …); assay: array SPR, mAb captured on anti-human IgG Fc, PD-1 as analyte
Method: as §2, §3, §4

T1 sequence (Q15116 25-170 limits assumed): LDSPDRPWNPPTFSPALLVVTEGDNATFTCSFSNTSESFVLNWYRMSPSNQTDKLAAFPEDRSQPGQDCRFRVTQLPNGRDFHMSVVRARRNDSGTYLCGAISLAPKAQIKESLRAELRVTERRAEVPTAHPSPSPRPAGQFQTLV

Binder	binding result [2]	Kd [3] [nM]	koff [3] [s⁻¹]	kon [3] [M⁻¹ s⁻¹]	PD-1/PD-L1 blockage (IC50, µg/ml) [4] [µg/mL]	Kd [5] [nM]	Kd [6] [nM]	binding result [1]
A14 (antibody, V domains shown, Tested as full-length mAb expressed in CHO cells; also called antibody 14; L14H14) VH: not shown VL: DIQMTQSPSSLSASVGDRVTITCRASQGIRNDLGWYQQKPGKAPKRLIYVASSLQSGVPSRFSGSGSGTEFTLTISSLQPEDFATYYCLQHNSYPLTFGGGTKVEIK	binds	–	–	–	–	–	–	no binding (tested: antigen dilutions beginning at 300 nM)
A9 (antibody, V domains shown, Tested as full-length mAb expressed in CHO cells; also called antibody A9; L9H9) VH: QVQLVESGGGVVQPGRSLRLSCAASGFTFSNYGMHWVRQAPGKGLEWVAVIWYDGTNKFYADSVKGRFTISRDNSKNTLYLQMNSLRAEDTAVYYCATNSDDYWGQGTLVTVSS VL: AIQMTQSPSSLSASVGDRVTITCRASQDIRNDLGWYQQKPGKAPKLLIYAASLLRSGVPSRFSGSGSGTDFTLTISSLQPEDFATYYCLQDNNYPRTFGQGTKVEIK	–	24	0.00079	32000	0.461	42	24	–
A8 (antibody, V domains shown, Tested as full-length mAb expressed in CHO cells; also called antibody A8; L8H8) VH: QVQLVESGGGVVQPGRSLRLSCAASGFTFSSYGMHWVRQAPGKGLEWVAVIWYDGSIKYYADSVKGRFTISRDNSKNTLYLQMNSLRAEDTAVYYCANDILTGSFDYWGQGTLVTVSS VL: EIVLTQSPATLSLSPGERATLSCRASQSVSSYLAWYQQKPGQAPRLLIYDASNRATGIPARFSGSGSGTDFTLTISSLEPEDFAVYYCQQRNTWPYTFGQGTKLEIKR	–	410	0.035	84000	–	447	410	–

The next lines start with results.

binding result [2]	Kd [3] [nM]	koff [3] [s⁻¹]	kon [3] [M⁻¹ s⁻¹]	PD-1/PD-L1 blockage (IC50, µg/ml) [4] [µg/mL]	Kd [5] [nM]	Kd [6] [nM]	Binder	binding result [1]
–	10	6.9e-05	6600	1.64	12	10	A10 (antibody, V domains shown, Tested as full-length mAb expressed in CHO cells; also called antibody A10; L10H10) VH: QVQLVQSGAEVKKPGASVKVSCKASGYTFAIYGISWVRQAPGQGLEWMGWISAYSDNSNYAQKLQGRVTMTTDTSTSTAYMELRSLRSDDTAVYYCVRDGSHGDYYYGMDVWGQGTTVTVSS VL: DIQMTQSPSSLSASVGDRVTITCRASQGISSWLAWYQQKPEKAPKSLIYAASSLQSGVPSRFSGSGSGTDFTLTISSLQPEDFATYYCQQYNSYPYTFGQGTKLEIK	–
–	20	0.00025	12000	2.12	0.1	20	A4 (antibody, V domains shown, Tested as full-length mAb expressed in CHO cells; also called antibody A4; L4H4) VH: QVQLVQSGAEVKKPGASVKVSCKASGYTFATYGVSWVRQAPGQGLEWMGWISAYSDNINYAQNLQGRVTITTDTSTSTAYMELRSLRSDDTAVYYCARDGSHGDYYYGMDVWGQGTTVTVSS VL: DIQMTQSPSSLSASVGDRVTITCRASQGISSWLAWYQQKPEKAPKSLIYAASSLQSGVPSRFSGSGSGTDFTLTISSLQPEDFATYYCQQYNSYPYTFGQGTKLEIKR	–
–	70	0.00086	12000	1.12	26	70	A6 (antibody, V domains shown, Tested as full-length mAb expressed in CHO cells; also called antibody A6; L6H6) VH: QVQLVESGGGVVQPGRSLRLSCAASGFTFSSYGMHWVRQAPGKGLEWVAVIWYDGSNKYYADSVKGRFTISRDNSKNTLYLQMNSLRAEDTAVYYCAGGGNYWGDFWGQGTLVTVSS VL: DIQMTQSPSSLSASVGDRVTITCRASQGIRNDLGWYQQKPGKAPKRLLYAASNLQLGVPSRFSGSGSETEFTLTISSLQPEDFATYYCLQHNSYPWTFGQGTKVEIKR	–
–	–	–	–	–	14	–	Pembrolizumab (antibody, V domains shown) VH: QVQLVQSGVEVKKPGASVKVSCKASGYTFTNYYMYWVRQAPGQGLEWMGGINPSNGGTNFNEKFKNRVTLTTDSSTTTAYMELKSLQFDDTAVYYCARRDYRFDMGFDYWGQGTTVTVSS VL: EIVLTQSPATLSLSPGERATLSCRASKGVSTSGYSYLHWYQQKPGQAPRLLIYLASYLESGVPARFSGSGSGTDFTLTISSLEPEDFAVYYCQHSRDLPLTFGGGTKVEIKR	–
